These results are taken from the Human Domainome abundance scans (Beltran et al. 2025).

Sequences and labels used below:
B1: Neutrophil cytosol factor 2, residues 456 to 514; numbered along this chain, P19878 (parent)
chain: LKKGSQVEALFSYEATQPEDLEFQEGDIILVLSKVNEEWLEGECKGKVGIFPKVFVEDC

± gives the uncertainty stated by the source.

In this data set the parent is B1. Kind of data set: abundance fitness (aPCA) (normalised: wild type 0, dead -1); higher = more abundant; growth selection in yeast, the domain comes from the species named. To be noted: Homo sapiens.
For the variant LKKGSQVEALFSYEATQNEDLEFQEGDIILVLSKVNEEWLEGECKGKVGIFPKVFVEDC, the abundance fitness was -0.074 ± 0.11. Then LKKGSQVEALFSYEATQMEDLEFQEGDIILVLSKVNEEWLEGECKGKVGIFPKVFVEDC, with -0.235 ± 0.24; and LKKGSQVEALFSYEATQREDLEFQEGDIILVLSKVNEEWLEGECKGKVGIFPKVFVEDC, with -0.163 ± 0.1; and LKKGSQVEALFSYEATQHEDLEFQEGDIILVLSKVNEEWLEGECKGKVGIFPKVFVEDC, with -0.537 ± 0.17. Then LKKGSQVEALFSYEATQWEDLEFQEGDIILVLSKVNEEWLEGECKGKVGIFPKVFVEDC, with -0.711 ± 0.24.

On to LKKGSQVEALFSYEATQDEDLEFQEGDIILVLSKVNEEWLEGECKGKVGIFPKVFVEDC, for which the abundance fitness was found to be 0.315 ± 0.12. Then LKKGSQVEALFSYEATQGEDLEFQEGDIILVLSKVNEEWLEGECKGKVGIFPKVFVEDC, with -0.613 ± 0.14. Then LKKGSQVEALFSYEATQCEDLEFQEGDIILVLSKVNEEWLEGECKGKVGIFPKVFVEDC, with -0.691 ± 0.14. Consider LKKGSQVEALFSYEATQEEDLEFQEGDIILVLSKVNEEWLEGECKGKVGIFPKVFVEDC, for which the abundance fitness was -0.48 ± 0.27.

Turning to LKKGSQVEALFSYEATQFEDLEFQEGDIILVLSKVNEEWLEGECKGKVGIFPKVFVEDC, the abundance fitness was -0.634 ± 0.14. Then LKKGSQVEALFSYEATQLEDLEFQEGDIILVLSKVNEEWLEGECKGKVGIFPKVFVEDC, with -0.801 ± 0.18.

For the variant LKKGSQVEALFSYEATQQEDLEFQEGDIILVLSKVNEEWLEGECKGKVGIFPKVFVEDC, the abundance fitness was -0.83 ± 0.45. The value for LKKGSQVEALFSYEATQKEDLEFQEGDIILVLSKVNEEWLEGECKGKVGIFPKVFVEDC was -0.558 ± 0.38; that for LKKGSQVEALFSYEATQTEDLEFQEGDIILVLSKVNEEWLEGECKGKVGIFPKVFVEDC was -0.599 ± 0.19; that for LKKGSQVEALFSYEATQIEDLEFQEGDIILVLSKVNEEWLEGECKGKVGIFPKVFVEDC was -0.651 ± 0.22. Then LKKGSQVEALFSYEATQVEDLEFQEGDIILVLSKVNEEWLEGECKGKVGIFPKVFVEDC, with -0.648 ± 0.17; and LKKGSQVEALFSYEARQPEDLEFQEGDIILVLSKVNEEWLEGECKGKVGIFPKVFVEDC, with -0.457 ± 0.14; and LKKGSQVEALFSYEASQPEDLEFQEGDIILVLSKVNEEWLEGECKGKVGIFPKVFVEDC, with -0.153 ± 0.097. The value for LKKGSQVEALFSYEAHQPEDLEFQEGDIILVLSKVNEEWLEGECKGKVGIFPKVFVEDC was -0.617 ± 0.18; that for LKKGSQVEALFSYEAVQPEDLEFQEGDIILVLSKVNEEWLEGECKGKVGIFPKVFVEDC was -0.36 ± 0.098. Regarding LKKGSQVEALFSYEAEQPEDLEFQEGDIILVLSKVNEEWLEGECKGKVGIFPKVFVEDC, the abundance fitness was -0.368 ± 0.35. Then LKKGSQVEALFSYEAFQPEDLEFQEGDIILVLSKVNEEWLEGECKGKVGIFPKVFVEDC, with -0.609 ± 0.2; and LKKGSQVEALFSYEAGQPEDLEFQEGDIILVLSKVNEEWLEGECKGKVGIFPKVFVEDC, with -0.192 ± 0.089.

In the case of LKKGSQVEALFSYEANQPEDLEFQEGDIILVLSKVNEEWLEGECKGKVGIFPKVFVEDC, the abundance fitness is -0.304 ± 0.14.

Take LKKGSQVEALFSYEAMQPEDLEFQEGDIILVLSKVNEEWLEGECKGKVGIFPKVFVEDC: the abundance fitness is -0.164 ± 0.4. Then LKKGSQVEALFSYEALQPEDLEFQEGDIILVLSKVNEEWLEGECKGKVGIFPKVFVEDC, with -0.076 ± 0.11; and LKKGSQVEALFSYEAAQPEDLEFQEGDIILVLSKVNEEWLEGECKGKVGIFPKVFVEDC, with -0.475 ± 0.16; and LKKGSQVEALFSYEAQQPEDLEFQEGDIILVLSKVNEEWLEGECKGKVGIFPKVFVEDC, with -0.158 ± 0.43. Consider LKKGSQVEALFSYEAWQPEDLEFQEGDIILVLSKVNEEWLEGECKGKVGIFPKVFVEDC, for which the abundance fitness was -0.651 ± 0.37.

With LKKGSQVEALFSYEADQPEDLEFQEGDIILVLSKVNEEWLEGECKGKVGIFPKVFVEDC, the abundance fitness was -0.428 ± 0.12. The value for LKKGSQVEALFSYEAKQPEDLEFQEGDIILVLSKVNEEWLEGECKGKVGIFPKVFVEDC was 0.397 ± 0.46; that for LKKGSQVEALFSYEAIQPEDLEFQEGDIILVLSKVNEEWLEGECKGKVGIFPKVFVEDC was -0.926 ± 0.23. The value for LKKGSQVEALFSYEACQPEDLEFQEGDIILVLSKVNEEWLEGECKGKVGIFPKVFVEDC was -0.426 ± 0.14. Then LKKGSQVEALFSYERTQPEDLEFQEGDIILVLSKVNEEWLEGECKGKVGIFPKVFVEDC, with -0.417 ± 0.14; and LKKGSQVEALFSYEGTQPEDLEFQEGDIILVLSKVNEEWLEGECKGKVGIFPKVFVEDC, with -0.152 ± 0.12. With LKKGSQVEALFSYETTQPEDLEFQEGDIILVLSKVNEEWLEGECKGKVGIFPKVFVEDC, the abundance fitness is -1.03 ± 0.37.

LKKGSQVEALFSYELTQPEDLEFQEGDIILVLSKVNEEWLEGECKGKVGIFPKVFVEDC: the abundance fitness is -0.827 ± 0.22. Turning to LKKGSQVEALFSYEHTQPEDLEFQEGDIILVLSKVNEEWLEGECKGKVGIFPKVFVEDC, the abundance fitness is -0.954 ± 0.27. Then LKKGSQVEALFSYEPTQPEDLEFQEGDIILVLSKVNEEWLEGECKGKVGIFPKVFVEDC, with -0.005 ± 0.15; and LKKGSQVEALFSYEFTQPEDLEFQEGDIILVLSKVNEEWLEGECKGKVGIFPKVFVEDC, with -0.606 ± 0.17; and LKKGSQVEALFSYEITQPEDLEFQEGDIILVLSKVNEEWLEGECKGKVGIFPKVFVEDC, with -0.357 ± 0.17. Then LKKGSQVEALFSYESTQPEDLEFQEGDIILVLSKVNEEWLEGECKGKVGIFPKVFVEDC, with 0.051 ± 0.089; and LKKGSQVEALFSYENTQPEDLEFQEGDIILVLSKVNEEWLEGECKGKVGIFPKVFVEDC, with -0.853 ± 0.27. The value for LKKGSQVEALFSYEWTQPEDLEFQEGDIILVLSKVNEEWLEGECKGKVGIFPKVFVEDC was -0.48 ± 0.27; that for LKKGSQVEALFSYEYTQPEDLEFQEGDIILVLSKVNEEWLEGECKGKVGIFPKVFVEDC was -0.617 ± 0.19.
